Measurements from PMC6676893 (Biochemistry, 2019).
Numbering of substitutions follows the chain as printed.

B1: Escherichia coli SufS R92A (enzyme, E. coli)
chain: MIFSVDKVRADFPVLSREVNGLPLAYLDSAASAQKPSQVIDAEAEFYRHGYAAVHRGIHTLSAQATEKMENVRKRASLFINARSAEELVFVAGTTEGINLVANSWGNSNVRAGDNIIISQMEHHANIVPWQMLCARVGAELRVIPLNPDGTLQLETLPTLFDEKTRLLAITHVSNVLGTENPLAEMITLAHQHGAKVLVDGAQAVMHHPVDVQALDCDFYVFSGHKLYGPTGIGILYVKEALLQEMPPWEGGGSMIATVSLSEGTTWTKAPWRFEAGTPNTGGIIGLGAALEYVSALGLNNIAEYEQNLMHYALSQLESVPDLTLYGPQNRLGVIAFNLGKHHAYDVGSFLDNYGIAVRTGHHCAMPLMAYYNVPAMCRASLAMYNTHEEVDRLVTGLQRIHRLLG
modifications: persulfide on C364 (as isolated; crystallographic occupancy 0.84); PLP, internal aldimine with K226
B2: Escherichia coli SufS E96A (enzyme, E. coli)
chain: B1 chain with A92R, E96A
modifications: persulfide on C364 (as isolated; crystallographic occupancy 0.80); PLP, internal aldimine with K226
B3: Escherichia coli SufS E250A (enzyme, E. coli)
chain: B1 chain with A92R, E250A
modifications: persulfide on C364 (as isolated; crystallographic occupancy 0.63); PLP, internal aldimine with K226
B4: Escherichia coli SufS H55A (enzyme, E. coli)
chain: B1 chain with H55A, A92R
modifications: persulfide on C364 (as isolated; crystallographic occupancy 0.66); PLP, internal aldimine with K226

Columns and labels:
SEC = target: the molecule itself; experiment: SEC
crystal structure = target: the molecule itself; experiment: crystal structure

Protein | stoichiometry N (SEC) | binding result (crystal structure)
B1 | 2 | –
B2 | 2 | –
B3 | 2 | –
B4 | – | binds
